Measurements published in patent US20220153854A1 (Ablynx, published 2022).
Changes are numbered by the printed parent chain.

Experiments:
cyno OX40L [1] = biological target: T1, cyno OX40L (cynomolgus monkey, UniProt G7NVH7 51-183); assay: SPR KD against parental F027300042 (15B07)
T1 construct: also called cyOX40L; cynomolgus monkey OX40L
T1 sequence: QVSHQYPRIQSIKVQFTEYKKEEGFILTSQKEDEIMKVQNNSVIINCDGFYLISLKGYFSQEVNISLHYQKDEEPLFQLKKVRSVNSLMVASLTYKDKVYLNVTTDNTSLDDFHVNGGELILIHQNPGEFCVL

human OX40L [2] = biological target: T2, human OX40L (human, UniProt P23510 51-183); assay: SPR KD against parental F027300042 (15B07)
T2 construct: Protein in solution or immobilised (SPR, Gyrolab); construct not described; also called huOX40L; hOX40L
T2 sequence (looked up): T1 sequence with Q5R, E23K

[3] = biological target: T3, membrane bound cyno OX40L on CHO-KI cells (cynomolgus monkey, UniProt G7NVH7 1-183); assay: cell-based or functional assay
T3 sequence: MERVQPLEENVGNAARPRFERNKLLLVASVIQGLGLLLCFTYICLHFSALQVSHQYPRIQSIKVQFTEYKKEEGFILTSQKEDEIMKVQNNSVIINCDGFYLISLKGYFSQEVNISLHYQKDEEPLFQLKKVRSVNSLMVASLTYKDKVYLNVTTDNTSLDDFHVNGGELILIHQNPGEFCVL

[4] = biological target: T4, membrane bound human OX40L on CHO-KI cells (human, UniProt P23510 1-183); assay: cell-based or functional assay
T4 sequence (looked up): T3 sequence with Q55R, E73K

cyno OX40L [5] = biological target: T1, cyno OX40L; assay: SPR
human OX40L [6] = biological target: T2, human OX40L; assay: SPR

Fold improved affinity vs parental (cyno OX40L [1]): 92 fold | Fold improved affinity vs parental (human OX40L [2]): 53 fold | IC50 (nM) PBMC assay cyno OX40L [3]: 7.58 nM | IC50 (nM) PBMC assay human OX40L [4]: 1.78 nM | Kd (cyno OX40L [5]): 0.108 nM | Kd (human OX40L [6]): 0.0853 nM
B1: F027301552 (15B07AM) (VHH)
VHH: DVQLVESGGGVVQPGGSLRLSCAASRSIGRYDRMGWYRHRPGEPRELVATITGGSSINYGDSVKGRFTISIDNSKNTVYLQMNSLRPEDTALYYCNFNKYQISRDTWGQGTLVTVSS
